Reference: PMC2581630, “S-Nitrosylation of Surfactant Protein-D Controls Inflammatory Function” (PLoS Biology, 2008)

Experiments:
[1] = target: SNO-SP-D in BAL from mice overexpressing SP-D, after treatment with S-nitrosocysteine (not stated (in BAL of SP-D overexpressing mice)) (UniProt P50404); experiment: SEC; BAL from SP-D overexpressing mice with or without SNOC, 0.75 mg total protein in 250 μl; Superdex 200 HR 10/30, 0.3 ml/min, 25 mM HEPES pH 7.25, 150 mM NaCl; fractions analysed by SDS-PAGE and Western blot for SP-D
[2] = target: the molecule itself; experiment: non-reducing SDS-PAGE with Western blot; recombinant proteins denatured without thiol reductant, SDS-PAGE, Western blot with SP-D antibody; shows only oligomers that survive SDS (disulfide-linked)

Chain of SNO-SP-D in BAL from mice overexpressing SP-D, after treatment with S-nitrosocysteine (P50404 20-374): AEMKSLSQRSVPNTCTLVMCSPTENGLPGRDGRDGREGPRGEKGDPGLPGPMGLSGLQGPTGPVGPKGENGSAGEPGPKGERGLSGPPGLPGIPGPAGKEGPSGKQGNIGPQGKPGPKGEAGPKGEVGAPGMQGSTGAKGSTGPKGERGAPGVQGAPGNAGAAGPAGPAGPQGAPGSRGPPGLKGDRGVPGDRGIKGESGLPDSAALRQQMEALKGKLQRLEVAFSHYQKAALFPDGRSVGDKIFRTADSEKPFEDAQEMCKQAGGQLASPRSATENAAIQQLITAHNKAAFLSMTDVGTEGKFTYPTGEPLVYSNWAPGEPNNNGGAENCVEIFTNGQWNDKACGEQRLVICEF

| Molecule | stoichiometry N [1] | stoichiometry N [2] |
| --- | --- | --- |
| SNO-SP-D in BAL from mice overexpressing SP-D, after treatment with S-nitrosocysteine (from UniProt P50404 20-374) (natural protein) | 3 | – |
| rat recombinant SP-D (surfactant protein D) (natural protein, UniProt P35248 20-374, looked up, surfactant protein D (SP-D), rat, recombinant; It has the N-terminal cysteines 15 and 20 and the head domain, so it is probably the whole mature chain; also called rSP-D; RrSP-D; source: recombinant) AEMKTLSQRSITNTCTLVLCSPTENGLPGRDGRDGREGPRGEKGDPGLPGPMGLSGLPGPRGPVGPKGENGSAGEPGPKGERGLVGPPGSPGISGPAGKEGPSGKQGNIGPQGKPGPKGEAGPKGEVGAPGMQGSAGAKGPAGPKGERGAPGEQGAPGNAGAAGPAGPAGPQGAPGSRGPPGLKGDRGAPGDRGIKGESGLPDSAALRQQMEALNGKLQRLEAAFSRYKKAALFPDGQSVGDKIFRAANSEEPFEDAKEMCRQAGGQLASPRSATENAAVQQLVTAHSKAAFLSMTDVGTEGKFTYPTGEALVYSNWAPGEPNNNGGAENCVEIFTNGQWNDKACGEQRLVICEF | – | 3 |
